First the molecules themselves.
B1: IgG1 b12 EFTAE Fc variant (antibody, V domains shown)
VH: QVQLVQSGAEVKKPGASVKVSCQASGYRFSNFVIHWVRQAPGQRFEWMGWINPYNGNKEFSAKFQDRVTFTADTSANTAYMELRSLRSADTAVYYCARVGPYSWDDSPQDNYYMDVWGKGTTVIVSS
VL: EIVLTQSPGTLSLSPGERATFSCRSSHSIRSRRVAWYQHKPGQAPRLVIHGVSNRASGISDRFSGSGSGTDFTLTITRVEPEDFALYYCQVYGASSYTFGQGTKLERK
B2: IgG1 b12 (unmodified Fc) (antibody, V domains shown)
VH: B1 VH
VL: B1 VL
B3: IgG1 b12 EG Fc variant (antibody, V domains shown)
VH: B1 VH
VL: B1 VL
B4: IgG1 b12 KA Fc variant (antibody, V domains shown)
VH: B1 VH
VL: B1 VL
B5: IgG1 b12 LALA Fc variant (antibody, V domains shown)
VH: B1 VH
VL: B1 VL

The target of the first assay is HIV-1_(YU-2) gp140 trimer (HIV-1 YU-2). Put plainly: BLI; kinetic.
For B1, the dissociation constant Kd was 2.78 nM.
B2 yielded a Kd of 1.72 nM.
The molecule B3 gave a Kd of 2.26 nM.
B4 came in with a dissociation constant (Kd) of 2.56 nM. The Kd values of the last two molecules are within 1.5-fold of each other.
B5 showed a dissociation constant (Kd) of 2.06 nM.

The target is the same in a further assay. Put plainly: BLI; equilibrium.
Molecule B1 yielded an equilibrium dissociation constant (Kd) of 1.93 nM.
As for B2, binding was characterised by a dissociation constant (Kd) of 2.18 nM.
B3 yielded a Kd of 0.9 nM.
Molecule B4 displayed a Kd of 2.95 nM.
B5 yielded a Kd of 2.04 nM.

Broadly, the Kd is the concentration at which binding is half-saturated.

The record behind these values is PMC8510540 (2021).
